# Experimental data taken from paper PMC10397247.
# T1: P4A-bS
# T1 chain: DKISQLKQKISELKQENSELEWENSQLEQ
# T2: P9A-bS
# T2 chain: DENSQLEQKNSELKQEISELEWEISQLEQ
# T3: P5A-bS
# T3 chain: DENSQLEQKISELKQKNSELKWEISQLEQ
# T4: P6A-bS
# T4 chain: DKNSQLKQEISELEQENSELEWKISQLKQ
# T5: P2A-bS
# T5 chain: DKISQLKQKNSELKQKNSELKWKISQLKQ
# T6: P3A-bS
# T6 chain: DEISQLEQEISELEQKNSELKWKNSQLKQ
# T7: P7A-bS
# T7 chain: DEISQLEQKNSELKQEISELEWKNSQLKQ
# T8: P8A-bS
# T8 chain: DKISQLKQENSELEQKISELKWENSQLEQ
# T9: 4H3057-bN
# T9 chain: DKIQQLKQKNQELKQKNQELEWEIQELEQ
# T10: 4H477-bN
# T10 chain: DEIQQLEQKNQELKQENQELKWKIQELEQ
# T11: 4H2692-bN
# T11 chain: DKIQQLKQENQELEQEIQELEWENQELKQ
# T12: 4H2438-bN
# T12 chain: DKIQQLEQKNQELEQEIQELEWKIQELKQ
# T13: 4H2503-bN
# T13 chain: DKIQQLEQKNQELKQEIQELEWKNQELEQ
# T14: 4H319-bN
# T14 chain: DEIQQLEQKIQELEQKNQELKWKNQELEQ
# T15: 4H2839-bN
# T15 chain: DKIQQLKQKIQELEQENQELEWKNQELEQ
# T16: 4H40-bN
# T16 chain: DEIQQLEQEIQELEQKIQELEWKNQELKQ
# T17: 4H3381-bH
# T17 chain: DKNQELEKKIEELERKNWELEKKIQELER
# T18: 4H2588-bN
# T18 chain: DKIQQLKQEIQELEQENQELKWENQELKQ
# T19: 4H3277-bN
# T19 chain: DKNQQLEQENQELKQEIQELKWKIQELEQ
# T20: 4H492-bN
# T20 chain: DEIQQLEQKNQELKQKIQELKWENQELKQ
# T21: 4H2915-bN
# T21 chain: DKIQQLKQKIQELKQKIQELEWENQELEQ
# T22: 4H2473-bN
# T22 chain: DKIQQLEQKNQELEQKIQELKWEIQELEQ
# T23: 4H741-bN
# T23 chain: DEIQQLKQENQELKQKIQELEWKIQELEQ
# T24: 4H2717-bN
# T24 chain: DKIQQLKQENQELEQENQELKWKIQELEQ
# T25: 4H2223-bN
# T25 chain: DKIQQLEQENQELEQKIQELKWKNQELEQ
# T26: 4H363-bA
# T26 chain: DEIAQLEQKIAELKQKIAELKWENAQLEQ
# T27: 4H344-bA
# T27 chain: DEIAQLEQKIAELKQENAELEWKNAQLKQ
# T28: 4H3907-bA
# T28 chain: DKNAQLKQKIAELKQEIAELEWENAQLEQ
# T29: 4H470-bA
# T29 chain: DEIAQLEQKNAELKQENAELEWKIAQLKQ
# T30: P1mSN
# T30 chain: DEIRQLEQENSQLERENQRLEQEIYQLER
# T31: 4H3974-bA
# T31 chain: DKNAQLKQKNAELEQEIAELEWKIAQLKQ
# T32: 4H3961-bA
# T32 chain: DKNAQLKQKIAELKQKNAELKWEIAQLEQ
# T33: 4H2745-bA
# T33 chain: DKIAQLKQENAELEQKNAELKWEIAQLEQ
# Legend:
# Test in all cases: two-hybrid library CCNG1;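 further: natural log of median RNA to DNA barcode read ratio; higher means stronger binding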
# P4A-bS = biological target: T1, P4A-bS
# P9A-bS = biological target: T2, P9A-bS
# P5A-bS = biological target: T3, P5A-bS
# P6A-bS = biological target: T4, P6A-bS
# P2A-bS = biological target: T5, P2A-bS
# P3A-bS = biological target: T6, P3A-bS
# P7A-bS = biological target: T7, P7A-bS
# P8A-bS = biological target: T8, P8A-bS
# 4H3057-bN = biological target: T9, 4H3057-bN
# 4H477-bN = biological target: T10, 4H477-bN
# 4H2692-bN = biological target: T11, 4H2692-bN
# 4H2438-bN = biological target: T12, 4H2438-bN
# 4H2503-bN = biological target: T13, 4H2503-bN
# 4H319-bN = biological target: T14, 4H319-bN
# 4H2839-bN = biological target: T15, 4H2839-bN
# 4H40-bN = biological target: T16, 4H40-bN
# 4H3381-bH = biological target: T17, 4H3381-bH
# 4H2588-bN = biological target: T18, 4H2588-bN
# 4H3277-bN = biological target: T19, 4H3277-bN
# 4H492-bN = biological target: T20, 4H492-bN
# 4H2915-bN = biological target: T21, 4H2915-bN
# 4H2473-bN = biological target: T22, 4H2473-bN
# 4H741-bN = biological target: T23, 4H741-bN
# 4H2717-bN = biological target: T24, 4H2717-bN
# 4H2223-bN = biological target: T25, 4H2223-bN
# 4H363-bA = biological target: T26, 4H363-bA
# 4H344-bA = biological target: T27, 4H344-bA
# 4H3907-bA = biological target: T28, 4H3907-bA
# 4H470-bA = biological target: T29, 4H470-bA
# P1mSN = biological target: T30, P1mSN
# 4H3974-bA = biological target: T31, 4H3974-bA
# 4H3961-bA = biological target: T32, 4H3961-bA
# 4H2745-bA = biological target: T33, 4H2745-bA
binder,measurement,setting,value
DKISQLKQKNSELKQKNSELKWKISQLKQ [P2A-bS],interaction score,P4A-bS,-0.497
same,interaction score,P9A-bS,-0.777
same,interaction score,P5A-bS,-0.924
same,interaction score,P6A-bS,-1.71
same,interaction score,P2A-bS,-1.36
same,interaction score,P3A-bS,-0.857
same,interaction score,P7A-bS,-0.792
same,interaction score,P8A-bS,-0.742
DKIQQLEQENQELEQKIQELKWKNQELEQ [4H2223-bN],interaction score,4H3057-bN,-0.362
same,interaction score,4H477-bN,-1.55
same,interaction score,4H2692-bN,-0.818
same,interaction score,4H2438-bN,-0.0421
same,interaction score,4H2503-bN,1.04
same,interaction score,4H319-bN,-0.943
same,interaction score,4H2839-bN,-0.721
same,interaction score,4H40-bN,-0.775
same,interaction score,4H3381-bH,0.0621
same,interaction score,4H2588-bN,0.654
same,interaction score,4H3277-bN,-0.393
same,interaction score,4H492-bN,0.539
same,interaction score,4H2915-bN,-1.33
same,interaction score,4H2473-bN,-0.941
same,interaction score,4H741-bN,-0.691
same,interaction score,4H2717-bN,-2.14
same,interaction score,4H2223-bN,0.483
DKIAQLKQENAELEQKNAELKWEIAQLEQ [4H2745-bA],interaction score,4H363-bA,-1.18
same,interaction score,4H344-bA,0.257
same,interaction score,4H3907-bA,-1.14
same,interaction score,4H470-bA,2.34
same,interaction score,P1mSN,-0.547
same,interaction score,4H3974-bA,0
same,interaction score,4H3961-bA,-1.18
same,interaction score,4H2745-bA,-0.711
